Test results taken from IntAct's records for PubMed 22309289.

B1: Protein X (Hepatitis B virus genotype D subtype ayw (isolate France/Tiollais/1979)), P03165 (parent)
chain: MAARLCCQLDPARDVLCLRPVGAESRGRPFSGSLGTLSSPSPSAVPTDHGAHLSLRGLPVCAFSSAGPCALRFTSARRMETTVNAHQILPKVLHKRTLGLSAMSTTDLEAYFKDCLFKDWEELGEEIRLKVFVLGGCRHKLVCAPAPCNFFTSA

Variants of: B1
Details: with akt1_human AKT1, P31749
Sequence of akt1_human AKT1, P31749 (P31749 whole entry): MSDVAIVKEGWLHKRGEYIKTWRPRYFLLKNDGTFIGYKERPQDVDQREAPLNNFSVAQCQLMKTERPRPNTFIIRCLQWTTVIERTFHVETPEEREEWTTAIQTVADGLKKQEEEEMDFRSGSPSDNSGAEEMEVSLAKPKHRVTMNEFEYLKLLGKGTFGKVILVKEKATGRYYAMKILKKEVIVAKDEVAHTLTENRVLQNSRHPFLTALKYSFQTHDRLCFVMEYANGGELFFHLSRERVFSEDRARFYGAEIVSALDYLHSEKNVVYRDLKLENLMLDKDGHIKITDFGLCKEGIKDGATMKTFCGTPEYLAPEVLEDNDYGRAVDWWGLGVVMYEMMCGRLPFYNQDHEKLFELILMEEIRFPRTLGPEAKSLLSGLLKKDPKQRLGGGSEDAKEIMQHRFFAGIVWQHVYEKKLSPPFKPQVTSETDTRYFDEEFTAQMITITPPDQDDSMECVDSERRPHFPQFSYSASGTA

Row | Variant | effect of a mutation on the interaction
1 | S31A | disrupting interaction
